Molecular target: biotinylated PECAM-1 Y663,pY686 peptide (human)
Assay: flow cytometry bead-based binding assay

B1: GST fusion protein containing the SH2 domain of Csk (domain or fragment)
chain: WFHGKITREQAERLLYPPETGLFLVRESTNYPGDYTLCVSCDGKVEHYRIMYHASKLSIDEEVYFENLMQLVEHYTSDADGLCTRLIKPK
  binding relative to the Lyn SH2 domain: 2 fold

Source: article PMC3666314
